Laboratory results from patent publication US20250121082A1 (SHANDONG BOAN BIOTECHNOLOGY, published 2025).

Molecular target: T1, Human CD228 protein (human, UniProt P08582 20-708, limits assumed)
T1 construct: Recombinant protein made in CHO cells, purified over a Ni column; The printed entry begins with the leader (MRGPSG...) and ends with ten His; also called hCD228; CD228-His protein
T1 sequence: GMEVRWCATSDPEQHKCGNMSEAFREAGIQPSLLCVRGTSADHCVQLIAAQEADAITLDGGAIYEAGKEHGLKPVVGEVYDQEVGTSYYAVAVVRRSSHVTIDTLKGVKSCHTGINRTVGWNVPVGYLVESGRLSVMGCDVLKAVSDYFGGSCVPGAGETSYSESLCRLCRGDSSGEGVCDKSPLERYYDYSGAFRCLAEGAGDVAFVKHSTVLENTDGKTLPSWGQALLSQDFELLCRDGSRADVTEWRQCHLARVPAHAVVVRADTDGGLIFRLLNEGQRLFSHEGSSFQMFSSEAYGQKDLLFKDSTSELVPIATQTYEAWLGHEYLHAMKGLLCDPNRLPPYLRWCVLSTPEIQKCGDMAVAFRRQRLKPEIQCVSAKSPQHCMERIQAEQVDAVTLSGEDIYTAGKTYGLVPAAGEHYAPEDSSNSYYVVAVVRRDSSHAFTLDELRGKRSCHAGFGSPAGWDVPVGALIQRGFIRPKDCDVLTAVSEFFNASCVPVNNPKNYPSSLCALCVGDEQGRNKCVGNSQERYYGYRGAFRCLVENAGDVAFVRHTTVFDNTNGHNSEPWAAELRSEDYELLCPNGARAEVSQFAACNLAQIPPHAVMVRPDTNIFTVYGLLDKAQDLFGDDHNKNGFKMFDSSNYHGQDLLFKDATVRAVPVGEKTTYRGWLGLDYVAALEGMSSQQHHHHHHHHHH
Assay: affinity assay (method not given)

Kd: 1.99 nM
B1: CA149 (antibody, human IgG1, kappa, V domains shown)
VH: EVQLVESGGGVVQPGRSLRLSCAASGFTFSSYAMHWVRQAPGKGLEWVAVISFDGSNKYYTDSVKGRFTISRDNSKNTLYLQMNSLRAEDTAVYYCAREVPYYYGSGPFDYWGQGTLVTVSS
VL: EIVLTQSPATLSVSPGERATLSCRASQSVSSNLAWYQQKPGQAPRHLIDGASSRASGIPDRFSGSGSGTDFTLTISRLEPEDFAVYYCQQYGSSPPFTFGPGTKVDIKR
notes: Intact IgG1; also called CA149 antibody
